Test results from patent publication US11312773B2, “Anti-PD-L1 antibody” (Fuso Pharmaceutical Industries, Ltd., priority 2016, dated 2022).

Columns and labels:
water buffalo leukocytes = test: Flow cytometry reactivity with water buffalo leukocytes; type: binding, water buffalo (Bubalus bubalis)
Procedure: Peripheral blood of water buffalo (Bubalus bubalis; Asian water buffalo) was hemolyzed with ACK buffer to isolate leukocytes. […] After washing, reaction with allophycocyanine-labelled anti-rat Ig goat antibody (Beckman Coulter) and fluorescein isothiocyanate-labeled anti-mouse IgG2 goat antibody (Beckman Coulter) was conducted at room temperature for 30 min. For analysis, FACS Calibur (BD Biosciences) was used. As a negative control antibody, rat IgG2a (κ) isotype control (BD Biosciences) was used. For every washing operation and dilution of antibodies, 10% inactivated goat serum supplemented PBS was used.

ovine PD-L1 = test: Flow cytometry reactivity with ovine PD-L1-EGFP expressing COS-7 cells; type: binding; settings: 10 μg/ml
Procedure: (§1) COS-7 cells were subcultured at a density of 5×10^4 cells/cm^2 in 6-well plates, and then cultured overnight in RPMI 1640 medium containing 10% inactivated fetal bovine serum and 0.01% L-glutamine at 37° C. in the presence of 5% CO2. The pEGFP-N2-ovPD-1, pEGFP-N2-ovPD-L1, pEGFP-N2-poPD-1, pEGFP-N2-poPD-L1 or pEGFP-N2 (negative control) was introduced into COS-7 cells at 0.4 μg/cm^2 using Lipofectamine 2000 (Invitrogen). The cells were cultured for 48 hours (ovPD-1-EGFP expressing cell, ovPD-L1-EGFP expressing cell, poPD-1-EGFP expressing cell, and poPD-L1-EGFP expressing cell). In order to confirm the expression of ovine PD-1, ovine PD-L1, porcine PD-1 and porcine PD-L1 in the thus prepared expressing cells, intracellular localization of EGFP was visualized with an inverted confocal laser microscope LSM700 (ZEISS) or an all-in-one fluorescence microscope BZ-9000 (KEYENCE). It was confirmed by flow cytometry that rat anti-bovine PD-L1 monoclonal antibody cross-reacts with ovine and porcine PD-LL. […] After washing, the cells were reacted with allophycocyanine-labeled anti-rat Ig goat antibody (Beckman Coulter) at room temperature for 30 min. For analysis, FACS Verse (BD Bioscience) was used. As a negative control antibody, rat IgG2a (κ) isotype control (BD Bioscience) was used. For every washing operation and dilution of antibodies, 1% bovine serum albumin supplemented PBS was used.

[1] = target: T1, canine PD-1/PD-L1 binding (Canis lupus familiaris, UniProt A0A8I3P7C4); test: Canine PD-1/PD-L1 binding inhibition ELISA (cPD-1-Ig immobilized, biotinylated cPD-L1-Ig); settings: antibody 0, 2.5, 5 and 10 μg/ml
T1 construct: made in house; host or cells: Expi293F
T1 sequence (A0A8I3P7C4 19-237): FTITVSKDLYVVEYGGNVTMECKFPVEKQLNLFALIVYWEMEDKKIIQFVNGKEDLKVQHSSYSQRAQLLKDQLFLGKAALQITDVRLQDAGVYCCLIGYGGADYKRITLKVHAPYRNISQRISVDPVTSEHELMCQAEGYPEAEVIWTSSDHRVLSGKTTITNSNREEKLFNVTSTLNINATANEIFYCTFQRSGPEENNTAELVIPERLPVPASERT
Procedure: Briefly, canine PD-1-Ig (prepared in 2.4 above) was immobilized on flat bottomed 96-well plates and blocked with 1% BSA and 0.05% Tween 20-containing PBS. […] The binding of cPD-L1-Ig to cPD-1-Ig was measured by color reaction using Neutravidin-HRP (Thermo Fisher Scientific) and TMB one component substrate (Bethyl Laboratories).
Briefly, heavy chain and light chain variable region genes were identified from hybridomas producing rat anti-bovine PD-L1 monoclonal antibodies 4G12 and 6G7. Further, the heavy chain and light chain variable region genes of the above rat antibodies were linked to the constant region of heavy chain IgG4 and the constant region of light chain Lambda of a known canine antibody, respectively, to prepare nucleotide sequences, followed by codon optimization (SEQ ID NOS: 9 and 10 (amino acid sequences), SEQ ID NOS: 19 and 20 (nucleotide sequences after codon optimization). Then, synthesis of genes was performed so that NotI restriction enzyme recognition site. KOZAK sequence, chimeric antibody's light chain sequence, poly-A addition signal sequence (PABGH), promoter sequence (PCMV), SacI restriction enzyme recognition site, intron sequence (INRBG), KOZAK sequence, chimeric antibody's heavy chain sequence and XbaI restriction enzyme recognition site would be located in this order. […]

[2] = system: canine CD80/PD-L1 binding; test: Canine CD80/PD-L1 binding inhibition ELISA (cCD80-Ig immobilized, cPD-L1-Ig); settings: antibody 0, 2.5, 5 and 10 μg/ml
Procedure: Using the canine PD-1-Ig, PD-L1-Ig and CD80-Ig (described above), anti-PD-L1 antibody was tested for its ability to inhibit canine PD-1/PD-L1 binding and CD80/PD-L1 binding. Briefly, canine PD-1-Ig or CD80-Ig was immobilized on flat-bottom 96-well plates.

porcine PD-L1 = test: Flow cytometry reactivity with porcine PD-L1-EGFP expressing COS-7 cells; type: binding; settings: 10 μg/ml
Procedure: as §1

[3] = system: PBMCs of BLV-infected cattle; test: Biological activity test: IFN-γ production of PBMCs of BLV-infected cattle to BLV antigen; settings: 10 μg/ml antibody, 2% FLK-BLV supernatant, 6 days, n=10

B1: 4G12: rat anti-bovine PD-L1 monoclonal antibody; VL SEQ ID NO: 1, VH SEQ ID NO: 2 (antibody, listed as Rattus norvegicus, V domains shown)
VH: MGWSQIILFLVAAATCVHSQVQLQQSGAELVKPGSSVKISCKASGYTFTSNFMHWVKQQPGNGLEWIGWIYPEYGNTKYNQKFDGKATLTADKSSSTAYMQLSSLTSEDSAVYFCASEEAVISLVYWGQGTLVTVSS
VL: MESQTHVLISLLLSVSGTYGDIAITQSPSSVAVSVGETVTLSCKSSQSLLYSENQKDYLGWYQQKPGQTPKPLIYWATNRHTGVPDRFTGSGSGTDFTLIISSVQAEDLADYYCGQYLVYPFTFGPGTKLELK
Binding to blood macrophages (CD14+ CD11b+ cells) of water buffalo (water buffalo leukocytes): strongly bound | Binding to lymphocytes (CD14− CD11b− cells) of water buffalo (water buffalo leukocytes): weakly bound | Binding to ovine PD-L1 (ovine PD-L1): binds to ovine and porcine PD-L1 | Inhibitory activity against canine PD-1/PD-L1 binding [1]: reduced the amounts of binding | Inhibitory activity against canine CD80/PD-L1 binding [2]: reduced the amounts of binding | Binding to porcine PD-L1 (porcine PD-L1): binds to ovine and porcine PD-L1 | IFN-γ response of bovine PBMCs to BLV antigen [3]: increases
